Kd data for 1 substance are collected here from PMC2903434.

The test deals with PAK1 kinase domain (K298R mutant), residues 250-545 from PAK-fl (UniProt Q13153).

The Kd is the concentration at which binding is half-saturated. Low values mean tighter binding, high ones weaker binding. As to “truncated autoinhibitory domain (trunc-AID, residues 83-137) from PAK1 (from UniProt Q13153 83-137) (domain or fragment)”, the Kd is 4 µM.
